From patent publication US20140178935A1 (AVEO PHARMACEUTICALS, published 2014)
Numbering of substitutions follows the chain as printed. Each block holds one binder with its values, some of them ahead of it.

What was measured:
[1] = biological target: T1, recombinant mhm chimeric HGF protein containing human W507-L585 HGF sequence disposed within mouse HGF … (mouse-human-mouse chimera, UniProt Q08048 56-728); assay: SPR, antibody immobilized, HGF protein injected, 25 C
T1 construct: CHO supernatant; also called mhm chimera (W507-L585); MHM chimera (507-585)
T1 chain: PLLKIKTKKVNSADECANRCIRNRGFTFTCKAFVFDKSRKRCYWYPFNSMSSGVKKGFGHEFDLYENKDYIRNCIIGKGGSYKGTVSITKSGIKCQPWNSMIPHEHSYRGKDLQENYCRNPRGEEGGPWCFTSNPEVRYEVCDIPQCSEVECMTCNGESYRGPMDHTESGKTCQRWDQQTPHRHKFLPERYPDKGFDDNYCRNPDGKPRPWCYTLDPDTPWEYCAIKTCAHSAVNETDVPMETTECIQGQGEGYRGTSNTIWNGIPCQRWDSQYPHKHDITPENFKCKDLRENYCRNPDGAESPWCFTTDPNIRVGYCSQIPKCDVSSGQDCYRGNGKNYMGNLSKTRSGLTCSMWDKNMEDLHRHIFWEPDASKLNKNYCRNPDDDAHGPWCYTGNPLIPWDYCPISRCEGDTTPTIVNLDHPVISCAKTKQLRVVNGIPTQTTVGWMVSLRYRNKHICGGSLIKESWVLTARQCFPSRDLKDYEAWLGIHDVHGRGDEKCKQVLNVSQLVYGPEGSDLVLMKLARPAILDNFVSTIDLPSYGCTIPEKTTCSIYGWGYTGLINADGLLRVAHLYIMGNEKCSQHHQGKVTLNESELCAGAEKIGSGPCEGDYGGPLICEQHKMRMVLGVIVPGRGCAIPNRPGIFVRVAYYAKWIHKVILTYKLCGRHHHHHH
Experimental: (§1) Analyses were performed at 25° C. using PBS (GIBCO, Catalog No. 14040-133) containing 0.05% surfactant P20 (BIAcore, Catalog No. R-1000-54), 2 mg/mL BSA (EMD, Catalog No. 2930) and 10 mg/mL CM-Dextran Sodium salt (Fluka, Catalog No. 86524) as running buffer. […] The resulting binding was determined as resonance units (RU) over baseline 30 seconds after the end of injection. […] Non-specific binding was monitored by comparing binding to a control surface.

[2] = biological target: T2, recombinant mhm chimeric HGF protein containing the region I499-R556 of hHGF disposed between murine sequences (mouse-human-mouse chimera, UniProt Q08048 56-728); assay: as above
T2 construct: also called mhm chimera (I499-R556)
T2 chain: T1 chain with Q443R, T445N, V446I, D499E, C502R, V505I, V508I, M523L
Experimental: as §1

[3] = biological target: T3, recombinant mouse HGF (R&D Systems) (mouse, UniProt Q08048 33-728); assay: as above
T3 construct: Bought protein, construct not described; also called rmHGF (R&D Systems); murine HGF
Experimental: as §1

[4] = biological target: T4, recombinant human HGF (R&D Systems, Catalog No. 294-HGN-025) (human, UniProt P14210 32-728); assay: competition ELISA (DELFIA): antibody inhibits biotinylated c-Met binding to plate-coated HGF
T4 construct: Mature HGF is a disulfide-linked heterodimer of alpha and beta chain cut from one precursor; also called rhHGF (R&D Systems); rhHGF
Experimental: The plates then were blocked with 200 μL of 5% non-fat dry milk in PBS for 1 hour at room temperature. […] 100 μL of sample per well was transferred to the assay plate and incubated for 2 hours at room temperature. The resulting plates were washed three times with PBS-0.1% Tween 20, and incubated for 1 hour at room temperature with Eu-labeled Streptavidin (Wallac, Catalog No. 1244-360) diluted 1:1000 in DELFIA assay buffer (Wallac, Catalog No. 4002-0010). The resulting plates were washed 3 times with DELFIA wash solution (Wallac, Catalog No. 4010-0010) and incubated with 100 μL/well DELFIA enhancement solution (Wallac #4001-0010) for 15 minutes at room temperature with agitation. The plates were read on Victor³V instrument (Perkin Elmer) using the Europium method. The IC₅₀ values were calculated using Prism.

[5] = biological target: T4, recombinant human HGF (R&D Systems, …); assay: cell-based or functional assay

T4 sequence (P14210 32-728 limits assumed): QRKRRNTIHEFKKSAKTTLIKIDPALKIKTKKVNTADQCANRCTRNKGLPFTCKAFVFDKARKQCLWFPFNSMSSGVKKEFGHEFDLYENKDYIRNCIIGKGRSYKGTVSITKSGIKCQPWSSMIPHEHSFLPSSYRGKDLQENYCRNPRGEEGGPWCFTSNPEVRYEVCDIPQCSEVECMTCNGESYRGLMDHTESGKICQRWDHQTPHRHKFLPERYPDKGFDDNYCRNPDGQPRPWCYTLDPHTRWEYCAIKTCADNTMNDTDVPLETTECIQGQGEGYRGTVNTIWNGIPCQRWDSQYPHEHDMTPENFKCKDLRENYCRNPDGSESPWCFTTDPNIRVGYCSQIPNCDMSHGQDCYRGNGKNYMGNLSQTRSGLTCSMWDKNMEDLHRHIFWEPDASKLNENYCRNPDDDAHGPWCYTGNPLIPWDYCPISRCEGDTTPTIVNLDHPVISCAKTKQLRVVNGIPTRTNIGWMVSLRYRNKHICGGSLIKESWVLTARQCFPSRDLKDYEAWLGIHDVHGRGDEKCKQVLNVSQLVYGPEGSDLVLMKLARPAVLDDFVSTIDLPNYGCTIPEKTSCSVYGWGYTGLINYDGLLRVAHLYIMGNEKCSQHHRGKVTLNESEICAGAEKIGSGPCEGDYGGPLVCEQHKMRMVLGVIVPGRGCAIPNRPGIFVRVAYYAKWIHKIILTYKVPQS
T3 sequence (Q08048 33-728 limits assumed): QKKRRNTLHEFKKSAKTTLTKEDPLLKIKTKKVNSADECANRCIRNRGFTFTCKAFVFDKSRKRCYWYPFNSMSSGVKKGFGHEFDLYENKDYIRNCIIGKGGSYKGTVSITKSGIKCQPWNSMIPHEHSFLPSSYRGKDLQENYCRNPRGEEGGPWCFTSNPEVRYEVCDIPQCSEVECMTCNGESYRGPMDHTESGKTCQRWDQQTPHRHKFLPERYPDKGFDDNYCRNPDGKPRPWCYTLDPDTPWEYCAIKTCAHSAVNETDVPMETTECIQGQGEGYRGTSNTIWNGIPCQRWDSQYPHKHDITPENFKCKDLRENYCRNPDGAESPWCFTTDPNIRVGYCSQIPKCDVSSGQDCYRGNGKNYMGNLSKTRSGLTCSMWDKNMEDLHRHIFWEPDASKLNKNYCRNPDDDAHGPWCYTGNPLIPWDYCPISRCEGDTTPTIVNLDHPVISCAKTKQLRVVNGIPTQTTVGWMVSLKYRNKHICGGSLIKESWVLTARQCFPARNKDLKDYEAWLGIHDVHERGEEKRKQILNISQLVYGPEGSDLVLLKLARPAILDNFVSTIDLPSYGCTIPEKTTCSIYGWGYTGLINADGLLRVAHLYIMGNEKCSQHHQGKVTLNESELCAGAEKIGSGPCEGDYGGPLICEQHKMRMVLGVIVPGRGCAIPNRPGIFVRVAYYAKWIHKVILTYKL

binding result [1]: binds
binding result [2]: binds
binding result [3]: no binding
IC50 [4]: 6.5 nM
IC50, neutralization of HGF stimulated BrdU incorporation in 4 MBr-5 cells [5]: 0.58 nM
B1: HE2B8-4 (LRMR2B8HC + IgG1 constant region G1m(3) allotype allele 1, plus LRMR2B8LC + Kappa constant region Km(3) allotype allele 1) (antibody, V domains shown)
VH: QVQLVQPGAEVKKPGTSVKLSCKASGYTFTTYWMHWVRQAPGQGLEWIGEINPTNGHTNYNQKFQGRATLTVDKSTSTAYMELSSLRSEDTAVYYCARNYVGSIFDYWGQGTLLTVSS
VL: DIVMTQSPDSLAMSLGERVTLNCKASENVVSYVSWYQQKPGQSPKLLIYGASNRESGVPDRFSGSGSATDFTLTISSVQAEDVADYHCGQSYNYPYTFGQGTKLEIKR
notes: Human Engineered 2B8 variant, human IgG1 kappa, made in HEK293E cells

binding result [1]: binds
binding result [2]: binds
binding result [3]: no binding
IC50 [4]: 9.2 nM
IC50, neutralization of HGF stimulated BrdU incorporation in 4 MBr-5 cells [5]: 0.86 nM
B2: anti-hHGF monoclonal antibody 2B8 (antibody, mouse IgG1, kappa)
heavy: QVQLQQPGAELVKPGTSVKLSCKASGYTFTTYWMHWVNQRPGQGLEWIGEINPTNGHTNYNEKFKSKATLTVDKSSSTAYMQLSSLTSEDSAVYYCARNYVGSIFDYWGQGTTLTVSSAKTTPPSVYPLAPGSAAQTNSMVTLGCLVKGYFPEPVTVTWNSGSLSSGVHTFPAVLQSDLYTLSSSVTVPSSTWPSETVTCNVAHPASSTKVDKKIVPRDCGCKPCICTVPEVSSVFIFPPKPKDVLTITLTPKVTCVVVDISKDDPEVQFSWFVDDVEVHTAQTQPREEQFNSTFRSVSELPIMHQDWLNGKEFKCRVNSAAFPAPIEKTISKTKGRPKAPQVYTIPPPKEQMAKDKVSLTCMITDFFPEDITVEWQWNGQPAENYKNTQPIMDTDGSYFVYSKLNVQKSNWEAGNTFTCSVLHEGLHNHHTEKSLSHSPGK
light: NIVMTQSPKSMSMSVGERVTLSCKASENVVSYVSWYQQKPAQSPKLLIYGASNRNTGVPDRFTGSGSATDFTLTISSVRAEDLADYHCGQSYNYPYTFGGGTRLEIKRADAAPTVSIFPPSSEQLTSGGASVVCFLNNFYPKDINVKWKIDGSERQNGVLNSWTDQDSKDSTYSMSSTLTLTKDEYERHNSYTCEATHKTSTSPIVKSFNRNEC
notes: Murine IgG1 kappa from hybridoma; also called murine 2B8; mouse 2B8
